Here are results for one molecule from US7241873B2, “Recombinant anti-osteopontin antibody and use thereof” (Juridical Foundation the Chemo-sero-therapeutic Research …, priority 2001, dated 2007).

Assay [1] addresses T1, human OPN (GST-OPN-a, GST-OPN-b, GST-OPN-c, GST-N half, GST-C half, CHO/OPN-a, thrombin-cleaved OPN) (Homo sapiens, UniProt P10451).
T1 construct: cDNAs encoding the full-length human OPN-a and OPN-b individually including the respective signal peptide regions; made in house; host or cells: Escherichia coli JM109
Kind of assay: Western blotting of murine monoclonal antibodies with OPN and thrombin digestion products. Format: binding. As for the experimental part: (§1) The binding potencies of the murine monoclonal antibodies 2K1 (referred to as “murine 2K1 antibody” hereinafter) and 4C1 recovered in the Example 2 to OPN and the thrombin digestion products thereof were tested by Western blotting method. […] Further, these monoclonal antibodies were not only bound to the recombinant OPNs of non-glycosylated type as generated in Escherichia coli but also reacted with the CHO/OPN-a protein of sugar-chain-bound type and the thrombin digestion products thereof (referred to as “thrombin-cleaved OPN” hereinafter).

For assay [2], the system named is human OPN (GST-OPN-a, GST-OPN-b, GST-OPN-c, GST-N half, GST-C half, CHO/OPN-a, thrombin-cleaved OPN). The assay is described as above. Format: binding. As for the experimental part: as §1
Assay [3] has as its system adhesion of human fibroblast TIG-7 to CHO/OPN-a. Kind of assay: Inhibition of TIG-7 cell adhesion to OPN. Format: cell-based. The method, then:
(§2) It was examined by the following method as to whether or not the murine monoclonal antibodies inhibited cell adhesion to OPN. First, a 96-well plate was precoated with various concentrations of the CHO/OPN-a at 4° C. overnight, which was then treated with 0.5% BSA in PBS under conditions of 37° C. for 10 minutes, so as to block non-specific adhesion. A human fibroblast TIG-7 or SW480 cell transformed with the cDNA of an integrin subunit α9 (referred to as “α9-transformed SW480 cell” hereinafter) was suspended in D-MEM containing 0.25% BSA; 200 μl of the resulting cell suspension (at a cell concentration of 5×10^4 cells/well) was injected in a 96-well plate precoated with the CHO/OPN-a or nOPN, in the presence or absence of various concentrations of the monoclonal antibodies or synthetic peptides, for incubation at 37° C. for one hour.
(§3) The culture medium was discarded from the plate, and all the wells were rinsed twice with D-MEM containing 0.25% BSA. The adherent cells were fixed and stained with 0.5% crystal violet in 20% methanol for 30 minutes.
All the wells were rinsed three times with water, and the adherent cells were then solubilized into 20% acetic acid. The resulting supernatant recovered from each well was analyzed with an immunoreader, to measure the absorbance at 590 nm to determine the relative count of the cells adhering to the well. All the assays were done in a triplicate fashion, and at least three independent experiments were performed. The values shown represent mean at three independent experiments.

Assay [4] concerns adhesion of TIG-7 cell to vitronectin (VN) or fibronectin (FN). The assay can be described thus: TIG-7 cell adhesion to vitronectin or fibronectin. Format: cell-based, human.
The test system of assay [5] is adhesion of α9-transformed SW480 cell to nOPN. Kind of assay: Adhesion of α9-transformed SW480 cell to nOPN. Format: cell-based, human. The following applies: FIG. 2B. As for the experimental part: as §2, §3
All the wells were rinsed three times with water, and the adherent cells were then solubilized into 20% acetic acid. The resulting supernatant recovered from each well was analyzed with an immunoreader, to measure the absorbance at 590 nm to determine the relative count of the cells adhering to the well. […]

Assay [6] deals with adhesion of α9-transformed SW480 cell to vitronectin. The assay can be described thus: Adhesion of α9-transformed SW480 cell to vitronectin. Format: cell-based, human. The conditions noted are these: FIG. 2B.
Assay [7] has as its system OPN-induced migration of human monocyte U937. The assay can be described thus: OPN-induced U937 cell migration test (ChemoTx). Format: cell-based. The following applies: U937, OPNs 10 μg/ml, antibody 50 μg/ml, FIG. 3b. The method, then:
A cell migration test using the U937 cell was performed by using a system ChemoTx101-8 (Neuro Probe Inc.). The cell was adjusted to 2×10^6 cells/ml with D-MEM containing 0.1% BSA, which was then applied to the upper layer on a filter (with a pore size of 8 μm), while the OPN protein was added to the lower layer.
The ChemoTx plate was left to stand in the presence of 5% CO2 at 37° C. for 4 hours. After the plate was left to stand, the filter was fixed with methanol, and was then stained with hematoxylin and eosin (H-E). The number of the cells migrating to the back face of the filter was counted with a microscope (magnification×400). The test was done in a triplicate manner, and the mean was used as data.

For assay [8], the system named is human peripheral neutrophil migration toward thrombin-cleaved OPN. The assay can be described thus: Migration of TNF-α-activated human peripheral neutrophil toward thrombin-cleaved OPN. The conditions noted are these: for Mean migrating cell counts per 1 mm^3 (neutrophil): thrombin-cleaved OPN 10 μg/mL. Format: cell-based. As for the experimental part:
(§4) By the Ficoll method, a monocyte fraction and a neutrophil fraction were separated from normal human peripheral blood (P. M. Daftarian et al., (1996): Journal of Immunology, 157, 12–20). The intermediate layer between Ficoll and serum was collected and cultured in a flask at 37° C. for one hour. The resulting attached cell was used as monocyte. To the erythrocyte layer remaining after collection of the monocyte fraction was added a 5-fold volume of 3% dextran-PBS to aggregate erythrocyte, followed by centrifugation at 150×g and 4° C. for 5 minutes.
(§5) The aggregated erythrocyte was precipitated, while in the resulting supernatant, neutrophil existed in suspended state. Then, the fraction was centrifuged at 500×g and ambient temperature for 20 minutes, to recover neutrophil. The monocyte and neutrophil as recovered in such manner were cultured overnight with human TNF-α (20 ng/mL) for activation. Then, the resulting activated monocyte and neutrophil were used for migration experiments.
(§6) The migration experiments were done, using a 48-well micro chemotaxis chamber (manufactured by Neuro Probe Inc.). After various concentrations of the murine 2K1 antibody were added to the thrombin-cleaved OPN and were then preliminarily left to stand at 37° C. for 15 minutes, the mixtures were added to the lower chamber (to a final human OPN concentration of 10 μg/mL). Placing thereon a polycarbonate filter (pore size of 5 μm), further, a cell suspension (2×10^6 cells/mL) of 50 μL was added to the upper chamber.
(§7) After culturing in the presence of 5% CO2 at 37° C. for 2 hours, the polycarbonate filter was removed to discard the cells on the upper surface of the filter; subsequently, the cells infiltrating to the back face of the filter were stained with Diff-Quick (manufactured by Baxter International Inc.). The stained cells were counted at a magnification×40. The results are shown as mean cell counts (cells/mm^3)±SD in 6 wells.

For assay [9], the system named is human peripheral monocyte migration toward thrombin-cleaved OPN. The assay can be described thus: Migration of TNF-α-activated human peripheral monocyte toward thrombin-cleaved OPN (murine 2K1). Format: cell-based. The following applies: for Mean migrating cell counts per 1 mm^3 (monocyte): thrombin-cleaved OPN 10 μg/mL. The method, then:
as §4, §5, §6, §7

T1 sequence (P10451 17-168): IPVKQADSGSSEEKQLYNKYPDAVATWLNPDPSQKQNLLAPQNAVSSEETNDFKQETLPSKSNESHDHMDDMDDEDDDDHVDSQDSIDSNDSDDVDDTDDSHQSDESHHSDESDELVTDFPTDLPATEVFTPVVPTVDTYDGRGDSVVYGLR

B1: murine 2K1 antibody: murine monoclonal antibody from mice immunized with Peptide 1 (…) of human OPN; hybridoma FERM BP-7883 (antibody, V domains shown)
VH: QVQLQQSGAELVRPGASVKLSCKALGYTFTDYEMHWVKQTPVHGLEWIGAIHPGRGGTAYNQKFKGKATLTADKSSSTAYMELSSLTSEDSAVYYCTRITGYFDVWGAGTTVTVSS
VL: DVLMTQTPLSLPVSLGDQASISCRSSQSIVHSNGNTYLEWYLQKPGQSPKLLIYKVSNRFSGVPDRFSGSGSGTDFTLKISRVEAEDLGVYYCFQGSHVPLTFGAGTKLELKR
notes: murine monoclonal antibody from mice immunized with Peptide 1 (…) of human OPN; hybridoma FERM BP-7883
Regarding B1, the “reactivity with GST-N half” value in assay [1] is on record as “reacted”. The “reactivity with GST-OPN-a, GST-OPN-b, GST-OPN-c” value in [2] was “reacted”. For the same molecule, the “effect on the inhibition of cell adhesion, comparison and concentration dependence” value in assay [3] (TIG-7, FIG. 1C) was “comparative to the effect exerted by mAb53 and is concentration-dependent”. Further, in [3] (antibody 200 μg/ml, TIG-7, FIG. 1B), the “inhibition of cell adhesion to OPN” value is recorded as “apparently inhibited”. Moreover, the “inhibition of adhesion of TIG-7 cell to vitronectin (VN) or fibronectin (FN)” value in assay [4] is “never inhibit”. Besides, the “inhibition of adhesion between SW480 cell and nOPN” value in [5] was “inhibited”. The “inhibition of adhesion between α9-transformed SW480 cell and vitronectin” value in [6] is reported as “never inhibited”. For the same molecule, the “inhibition of monocyte migration induced by CHO/OPN-a, thrombin-cleaved OPN and GST-N half” value in assay [7] is listed as “apparently inhibits”. In addition, the “inhibition of migration of TNF-α-activated human peripheral neutrophil toward thrombin-cleaved OPN” value in assay [8] is recorded as “inhibited”. The “Mean migrating cell counts per 1 mm^3 (neutrophil)” value was 566.7 ± 60.2 counts per 1 mm^3 in assay [8] (antibody 0.4 μg/mL), 550.0 ± 49.0 counts per 1 mm^3 in assay [8] (antibody 2 μg/mL), 450.0 ± 90.8 counts per 1 mm^3 in assay [8] (antibody 10 μg/mL) and 426.7 ± 30.8 counts per 1 mm^3 in assay [8] (antibody 50 μg/mL). In addition, the “inhibition of migration of TNF-α-activated human peripheral monocyte toward thrombin-cleaved OPN” value in assay [9] is on record as “inhibited”. In addition, the “Mean migrating cell counts per 1 mm^3 (monocyte)” value in assay [9] (antibody 0.4 μg/mL) worked out at 258.0 ± 71.9 counts per 1 mm^3; in assay [9] (antibody 2 μg/mL), 256.7 ± 66.5 counts per 1 mm^3; in [9] (antibody 10 μg/mL), 160.0 ± 56.9 counts per 1 mm^3; in assay [9] (antibody 50 μg/mL) it was 75.0 ± 55.4 counts per 1 mm^3.
